Drawing on US20240317844A1, this text covers Kd for one molecule.

The target of this assay is survivin (UniProt O15392). As to the kind of experiment: method not stated.

B1: mAb 2C2E7 (antibody, V domains shown)
VH: QIQLVQSGPELKKPGETVKISCKASGYTFTTYGMSWVKQAPGRGLKWMGWINPYSGVPTYAVDFKGRFAFSLETSASTAYLQINNLKNEDTATYFCARGGRRGDFGYWGQGTTLTVSS
VL: QIGLTQSPAIMSASPGEKVTMTCSASSSISYMHWYQQKPGTSPKTWIYDTSKLASGVPARFSGSGSGTSYSLTISSMEAEDAATYYCHQRSSHHTFGGGTKLEIK
By Kd is commonly meant a measure of binding affinity in units of concentration. Read a low Kd as a tighter complex. B1: the dissociation constant Kd amounted to 0.56 nM.
